Laboratory results published in PMC4346194.

Experiments:
[1] = target: GST-tagged FL-importin α1 (mouse) (UniProt P52293); experiment: pull-down
[2] = target: GST-tagged FL-importin α7 (human) (UniProt O60684); experiment: pull-down

For “MBP-tagged PB2-NLD-K718A (from UniProt P31345 678-759) (domain or fragment)”, the percent of importin α bound to cargo [1] was 20% and the percent of importin α bound to cargo [2] was 43%.
